Results as given in patent US20060110401A1, “Mixture of peptides from c and ns3 proteins of the hepatitis c virus and applications thereof” (priority 2002, published 2006).

Legend:
[1] = target: HLA-DR3 (DRB1*0301) (human); assay: competition binding
[2] = target: HLA-DR4 (DRB1*0401) (human); assay: competition binding
[3] = target: HLA-DR11 (DRB1*1101) (human); assay: competition binding
[4] = target: HLA-DRB5 (DRB5*0101) (human); assay: competition binding
[5] = target: HLA-DR7 (DRB1*0701) (human); assay: competition binding
[6] = target: HLA-DRB3 (DRB3*0101) (human); assay: competition binding
[7] = target: HLA-DRB4 (DRB4*0101) (human); assay: competition binding
[8] = target: HLA-DR15 (DRB1*1501) (human); assay: competition binding
[9] = target: HLA-DR1 (DRB1*0101) (human); assay: competition ELISA, purified HLA II; tracer biotinylated HA 306-318

Row | Substance | IC50 [1] [nM] | IC50 [2] [nM] | IC50 [3] [nM] | IC50 [4] [nM] | IC50 [5] [nM] | IC50 [6] [nM] | IC50 [7] [nM] | IC50 [8] [nM] | IC50 [9] [nM]
1 | 9N 1036-1055 (from UniProt P26664 1036-1055) | 6000 | 60 | 163 | 10 | 1250 | 35000 | 150 | 10000 | 
2 | 28N 1524-1553 (peptide; other documents disagree on this pair) |  |  |  |  |  |  |  |  | 2
